Assay results reported in paper PMC10802472 (bioRxiv, 2024).

Target: the molecule itself
Assay: cryo-EM structure

Row | Protein | stoichiometry N
1 | ACAD11 K* mutant (kinase-inactive mouse ACAD11) (enzyme, UniProt Q80XL6 1-779, looked up) METDVTSDTVEVLPQHKFDLRSLEAYLNQHLPGFGSDSRAVLTVTQYRSGQSNPTFFLQKGSQAYVLRKKPPGSLLPKAHKIDREFKIQKALFSIGFPVAKPLLYCRDASVIGTEFYVMEHVQGRIFRDFSIPGVSSAERAAIYVSVAETLAWLHSLDIRSLKLDKYGTGVGYCKRQVSTWTKQYQASAHQSIPAMDQLSTWLMKNLPDSDSEECLVHGAFKLDNIVFHPKECRVIAVLDWELSTFGHPLTDLAHLSLFYYWPRTLPMINRGSHIPENTGIPLMEELISIYCHRRGIDPNLPNWNFFMALSFFKLAGISQGVYRRYLMGNNSSEDSFLTANTVQPLAETGLQLSKRTLRTTPPQADAKSQLFAQSRRGQEVLTRVKQFMKQHVFPAEKEVAEYYAQSGNSAEKWGHPLVIEKLKEMAKAEGLWNLFLPAVSGLSQVDYALIAEETGKCFFAPDVFNCQAPDTGNMEVLHLYGSEQQKKQWLEPLLRGDITSVFCMTEPNVSSSDATNIECTIQRDGGGYIVNGKKWWSSGAGNPKCKIAIVLGRTESPSASRHRQHSMILVPMDTPGVELIRPLSVFGYMDNMHGGHWEVHFNHVRVPASNLILGEGRGFEISQGRLGPGRIHHCMRTVGLAERILQIMCDRAVQREAFKKKLYEHEVVAHWIAKSRIAIEEIRLLTLKAAHSIDTLGSASARKEIAMIKVAAPKAVCKIADWAIQVHGGAGVSQDYPLANMYAIIRTLRLADGPDEVHLSAIAKMELQDQARRLTARM | 4
2 | ACAD11 A* mutant (ACAD-inactive mouse ACAD11) (enzyme, UniProt Q80XL6 1-779, looked up) METDVTSDTVEVLPQHKFDLRSLEAYLNQHLPGFGSDSRAVLTVTQYRSGQSNPTFFLQKGSQAYVLRKKPPGSLLPKAHKIDREFKIQKALFSIGFPVAKPLLYCRDASVIGTEFYVMEHVQGRIFRDFSIPGVSSAERAAIYVSVAETLAWLHSLDIRSLKLDKYGTGVGYCKRQVSTWTKQYQASAHQSIPAMDQLSTWLMKNLPDSDSEECLVHGDFKLDNIVFHPKECRVIAVLDWELSTFGHPLTDLAHLSLFYYWPRTLPMINRGSHIPENTGIPLMEELISIYCHRRGIDPNLPNWNFFMALSFFKLAGISQGVYRRYLMGNNSSEDSFLTANTVQPLAETGLQLSKRTLRTTPPQADAKSQLFAQSRRGQEVLTRVKQFMKQHVFPAEKEVAEYYAQSGNSAEKWGHPLVIEKLKEMAKAEGLWNLFLPAVSGLSQVDYALIAEETGKCFFAPDVFNCQAPDTGNMEVLHLYGSEQQKKQWLEPLLRGDITSVFCMTEPNVSSSDATNIECTIQRDGGGYIVNGKKWWSSGAGNPKCKIAIVLGRTESPSASRHRQHSMILVPMDTPGVELIRPLSVFGYMDNMHGGHWEVHFNHVRVPASNLILGEGRGFEISQGRLGPGRIHHCMRTVGLAERILQIMCDRAVQREAFKKKLYEHEVVAHWIAKSRIAIEEIRLLTLKAAHSIDTLGSASARKEIAMIKVAAPKAVCKIADWAIQVHGGAGVSQDYPLANMYAIIRTLRLANGPDEVHLSAIAKMELQDQARRLTARM | 4
